± gives the uncertainty stated by the source.
Assay: protein stability index of a GFP-peptide fusion (yeast GPS) (PSI 1-4); higher = more stable; sorted into four equal gates, so the index is relative within each strain
Outline: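 Peptides tiling yeast proteins in 17-residue segments were fused downstream of GFP, with Cherry expressed from the same plasmid. As a pooled library in yeast, mid-log cultures grown in leucine-free medium were sorted into four equal gates by GFP/Cherry fluorescence ratio. Gate plasmids were PCR-amplified and Illumina-sequenced, and barcodes linked reads to strains. Each peptide received a protein stability index equal to the sum of each gate's read frequency times its gate number.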

Row | Sequence | protein stability index (doa10∆) | protein stability index (pdr5∆) | protein stability index (san1∆) | protein stability index (ubr1∆)
1 | VLKFTFTGEKPIITGST [MED8] | 2.01 ± 0.082 | 2.18 ± 0.074 | 2.04 ± 0.12 | 2.07 ± 0.062
2 | VLKSSVYEYVIASTLGP [RPC82] | 1.43 ± 0.085 | 1.53 ± 0.07 | 1.23 ± 0.11 | 1.43 ± 0.055
3 | VLKTLIEKFEQVPDSLD [RPN6] | 3.16 ± 0.093 | 3.21 ± 0.081 | 3.37 ± 0.06 | 3.21 ± 0.086
4 | VLMERKDERGEGEAKQK [ITC1] | 2.94 ± 0.21 | 3.35 ± 0.24 |  | 3.07 ± 0.22
5 | VLNGQKIVVVRAEALNI [RPL16B] | 2.47 ± 0.14 | 3.15 ± 0.14 | 3.16 ± 0.11 | 3.11 ± 0.11
6 | VLPAATKKKSKFMTNST [ARP9] | 2.74 ± 0.055 | 2.78 ± 0.046 | 2.71 ± 0.047 | 2.96 ± 0.039
7 | VLRTALVHDGLARGLRE [RPS12] | 2.57 ± 0.17 | 2.79 ± 0.16 | 2.77 ± 0.096 | 3.25 ± 0.1
8 | VLSDDAKKLSSFDFGNE [ARP9] | 2.93 ± 0.055 | 3.06 ± 0.09 | 2.86 ± 0.062 | 3.06 ± 0.056
9 | VLTHESLHRQQQQQQQQ [DLS1] | 3 ± 0.082 | 2.9 ± 0.079 | 2.62 ± 0.052 | 2.85 ± 0.079
10 | VLVASAKGLQTVVVEED [RPL31A] | 2.19 ± 0.1 | 2.49 ± 0.11 | 2.54 ± 0.087 | 2.25 ± 0.094
11 | VMDTIQEQITLYDHWDK [SSN8] | 3.14 ± 0.12 | 2.96 ± 0.09 | 2.63 ± 0.095 | 2.82 ± 0.068
12 | VMLKGIVTALLESDVNI [SRP54] | 1.3 ± 0.054 | 1.22 ± 0.067 | 1.18 ± 0.14 | 1.16 ± 0.066
13 | VMTVPGIDPTRIYTNSF [RPO21] | 2.44 ± 0.072 | 2.11 ± 0.067 | 2.59 ± 0.08 | 2.1 ± 0.056
14 | VMTYKGEVLGITRFGLS [RPO31] | 3.37 ± 0.16 |  | 3.09 ± 0.12 | 3.46 ± 0.29
15 | VMYGTAYKFEEVSKDLI [RPB8] | 2.9 ± 0.062 | 3.18 ± 0.061 | 3.34 ± 0.044 | 3.09 ± 0.051
16 | VMYNGHTGKKLMAQIFF [RPB2] |  | 2.31 ± 0.16 | 3.08 ± 0.14 | 1.27 ± 0.045
17 | VNDEEEHKQLVAEIVQN [RPC82] | 2.64 ± 0.12 | 2.54 ± 0.19 | 2.56 ± 0.14 | 1.66 ± 0.098
18 | VNDNPDIEAGDDDDNNE [DIS3] | 3.46 ± 0.19 | 3.47 ± 0.14 | 2.73 ± 0.22 | 3.33 ± 0.089
19 | VNIEPFNIDDEIKHGVF [LIN1] | 3.48 ± 0.15 | 3 ± 0.21 | 3.45 ± 0.14 | 3.48 ± 0.077
20 | VNNGNIPSQRGTSTTHG [SIR3] | 2.37 ± 0.16 | 2.85 ± 0.088 | 2.78 ± 0.094 | 2.73 ± 0.072
21 | VNNTRRRVYNRVLETTL [BRN1] | 2.5 ± 0.07 | 2.98 ± 0.094 | 2.87 ± 0.1 | 2.65 ± 0.11
22 | VNRLLSVIPLKGRYAPE [RRP4] | 1.85 ± 0.17 | 1.68 ± 0.087 | 2.33 ± 0.15 | 1.86 ± 0.055
23 | VNRSVVVSAVGEARNDI [YAR002W/NUP60] | 2.62 ± 0.044 | 2.57 ± 0.051 | 2.83 ± 0.041 | 2.2 ± 0.037
24 | VPCDRIEKSRLFSEKTI [SNF6] | 2.58 ± 0.11 | 2.78 ± 0.058 | 2.62 ± 0.096 | 2.2 ± 0.044
25 | VPLIKVADAKQLGEWAG [RPS12] | 3.17 ± 0.21 | 3.49 ± 0.23 |  | 3.17 ± 0.12
26 | VPPIASPQQFLRAHTDD [PRE2] | 2.02 ± 0.068 | 2.72 ± 0.063 | 2.17 ± 0.11 | 2.6 ± 0.087

Row | Sequence | protein stability index (doa10∆) | protein stability index (pdr5∆) | protein stability index (san1∆) | protein stability index (ubr1∆)
27 | VPPTIAQFQYTLDRNTA [RPL8A] | 1.83 ± 0.06 | 2.06 ± 0.048 | 1.64 ± 0.095 | 1.68 ± 0.044
28 | VPPVENFPVRQWSIEIV [TAF14] | 3.15 ± 0.064 | 2.55 ± 0.053 | 3.2 ± 0.042 | 2.82 ± 0.051
29 | VPRKFKHFIQGGSFGNR [RPL7A] | 3.36 ± 0.13 | 2.85 ± 0.1 | 3.13 ± 0.12 | 2.17 ± 0.055
30 | VPRTADRSASRAVFLFR [RPC82] |  | 3.53 ± 0.2 |  | 3.04 ± 0.17
31 | VPYVVTHDGRTIRYPDP [RPS4A] | 3.08 ± 0.1 | 3.16 ± 0.17 |  | 3.38 ± 0.19
32 | VQCPTVIKLAKYPDYFP [ARP9] | 2.15 ± 0.079 | 1.81 ± 0.049 | 2.31 ± 0.092 | 1.82 ± 0.047
33 | VQEQLSKNRIIVEADEK [RET1] | 1.52 ± 0.088 | 1.37 ± 0.052 | 1.65 ± 0.14 | 1.4 ± 0.062
34 | VQGGNAAPSAADIKAVV [RPP2B] | 3.01 ± 0.084 | 3.34 ± 0.07 | 2.88 ± 0.085 | 3.23 ± 0.075
35 | VQHDQILVMETSEEQTK [SWP82] | 2.99 ± 0.092 | 2.91 ± 0.11 | 2.94 ± 0.047 | 2.85 ± 0.076
36 | VQLKDANSQIQAYEEII [YIL149C/MLP2] | 2.69 ± 0.12 | 3.5 ± 0.17 | 3.37 ± 0.23 | 3.45 ± 0.12
37 | VQVKVLGKYEFSKILPA [ESC2] | 2.03 ± 0.15 | 1.99 ± 0.14 |  | 1.83 ± 0.19
38 | VRKAITVLFFIGVRCYE [FAS1] | 1.47 ± 0.087 | 1.77 ± 0.075 | 2.49 ± 0.098 | 1.45 ± 0.064
39 | VRKELRGRAVVLMGKNT [RPP0] | 1.71 ± 0.067 | 1.83 ± 0.094 | 2.12 ± 0.15 | 2.08 ± 0.057
40 | VRLGEEDMIRSVFDATS [RPN1] |  |  | 3.12 ± 0.23 | 
41 | VRLLCRSDGMGNVLLNA [YLR335W/NUP2] | 1.94 ± 0.17 | 2.41 ± 0.13 | 2.02 ± 0.18 | 2.53 ± 0.12
42 | VRNFKEAAKLLVDSLAT [RPN7] | 2.23 ± 0.18 |  |  | 
43 | VRSEMGEPIHKIATRGV [FAS1] | 3.14 ± 0.29 | 3.14 ± 0.28 |  | 2.95 ± 0.089
44 | VRVQRQKKILSIRLKVP [RPL8A] | 1.49 ± 0.032 | 1.28 ± 0.032 | 1.26 ± 0.054 | 1.25 ± 0.025
45 | VSADDFVEEQNVYVLPK [PRP8] | 3.44 ± 0.099 | 3.18 ± 0.11 | 3.07 ± 0.12 | 3.32 ± 0.083
46 | VSALDKCIKYSEKLITK [ECM29] | 3.18 ± 0.14 | 2.15 ± 0.1 | 1.94 ± 0.12 | 1.92 ± 0.093
47 | VSDSEIIDLNLHSFTKQ [POP6] | 2.72 ± 0.061 | 2.85 ± 0.062 | 2.41 ± 0.061 | 2.73 ± 0.044
48 | VSEVAKIMQEATQSGGV [PRE8] | 2.96 ± 0.11 | 2.77 ± 0.17 | 2.77 ± 0.15 | 3.05 ± 0.097
49 | VSGDLNPIHVSRHFASY [FAS1] | 2.51 ± 0.12 | 2.88 ± 0.068 | 2.78 ± 0.079 | 2.81 ± 0.062
50 | VSISTSVKPHVVEPEHM [SIR4] | 2.54 ± 0.078 | 2.99 ± 0.089 | 2.53 ± 0.087 | 2.65 ± 0.052
51 | VSITDAPKIHILDPSTE [YMR129W/POM152] | 1.56 ± 0.055 | 1.95 ± 0.056 | 1.53 ± 0.061 | 1.54 ± 0.061
52 | VSITPGKIEKIAQSKKK [SRP21] | 1.62 ± 0.081 | 1.8 ± 0.086 | 1.36 ± 0.13 | 1.49 ± 0.06

Row | Sequence | protein stability index (doa10∆) | protein stability index (pdr5∆) | protein stability index (san1∆) | protein stability index (ubr1∆)
53 | VSKKVDVRRLKKNVWRS [BRN1] | 2.54 ± 0.22 | 1.33 ± 0.13 |  | 3.13 ± 0.13
54 | VSLTKRKQEREITSLRQ [YIL149C/MLP2] | 2.03 ± 0.2 | 2.32 ± 0.14 | 2.45 ± 0.14 | 2.35 ± 0.071
55 | VSNRVAAPARAGAVAPE [RPP0] | 2.06 ± 0.11 | 2.54 ± 0.097 | 2.64 ± 0.11 | 2.56 ± 0.17
56 | VSNSISRLGEENLPGLS [SNU114] | 1.14 ± 0.12 | 1.27 ± 0.15 | 1.07 ± 0.15 | 1.07 ± 0.12
57 | VSPNDNNSANNNAHSSD [YMR153W/NUP53] | 2.91 ± 0.05 | 2.84 ± 0.06 | 2.75 ± 0.053 | 2.56 ± 0.037
58 | VSPNISSASPSALTSPT [SIR3] | 2.45 ± 0.056 | 2.78 ± 0.074 | 2.95 ± 0.06 | 2.53 ± 0.04
59 | VSQVRVVPNEKADDDSV [ASC1] | 2.72 ± 0.17 | 3.11 ± 0.15 | 3.06 ± 0.11 | 2.6 ± 0.08
60 | VSSKPSKPESSVLQLIV [MED1] | 2.73 ± 0.13 | 3.28 ± 0.11 | 2.94 ± 0.073 | 3.27 ± 0.098
61 | VTAKLLGFTPGELRSYL [FAS1] | 2.91 ± 0.073 | 2.97 ± 0.11 | 2.89 ± 0.1 | 3.1 ± 0.093
62 | VTDDPIWMRGHGTYFLD [RRP4] | 3.22 ± 0.067 | 3.17 ± 0.078 | 3.47 ± 0.056 | 3.07 ± 0.065
63 | VTDLSGKETIARVTGGM [RPS14B] | 3.03 ± 0.087 | 3.09 ± 0.081 | 2.79 ± 0.055 | 2.9 ± 0.061
64 | VTGASQFQRLAPSLTVP [PRE2] | 2.01 ± 0.096 | 1.25 ± 0.095 | 1.36 ± 0.2 | 1.67 ± 0.089
65 | VTIIPLDKIYTRPISSQ [SMC2] | 1.66 ± 0.067 | 1.55 ± 0.084 | 1.64 ± 0.082 | 1.25 ± 0.045
66 | VTKDTKKYSSKNKYGEI [SRP68] | 2.82 ± 0.11 | 2.66 ± 0.099 | 2.52 ± 0.086 | 2.77 ± 0.068
67 | VTLKGAKALESLASCLR [POP1] | 3.12 ± 0.073 | 2.94 ± 0.069 | 2.54 ± 0.078 | 2.74 ± 0.07
68 | VTPEDVMTISSLEQRTL [RPC82] | 3.2 ± 0.084 | 3.1 ± 0.076 | 3.06 ± 0.061 | 3.25 ± 0.073
69 | VTQKDICILGILDLCQL [CSI1] | 2.59 ± 0.091 | 2.85 ± 0.072 | 2.24 ± 0.11 | 1.29 ± 0.15
70 | VTVVDTPPVVVVGVVGY [RPL3] | 1.17 ± 0.051 | 1.41 ± 0.061 | 1.26 ± 0.065 | 1.39 ± 0.048
71 | VVDFKNKENDNVPSTKF [SNF12] | 3.6 ± 0.19 | 3.23 ± 0.25 | 3.04 ± 0.14 | 
72 | VVEPEHMADAKIMPKDI [SIR4] | 3.28 ± 0.1 | 3.35 ± 0.071 | 3.33 ± 0.085 | 3.12 ± 0.081
73 | VVFRDPYKYRLREEIFI [RPL2A] | 2.47 ± 0.12 | 2.66 ± 0.098 | 2.01 ± 0.088 | 2.81 ± 0.087
74 | VVGVVGYVETPRGLRSL [RPL3] | 2.15 ± 0.072 | 2.68 ± 0.049 | 3.15 ± 0.056 | 2.98 ± 0.095
75 | VVIDAFRLIDTGALINN [RPN11] | 1.27 ± 0.16 | 1.78 ± 0.17 |  | 1.11 ± 0.098
76 | VVLGVEKRATSPLLESD [PUP2] | 2.98 ± 0.16 | 2.84 ± 0.13 | 3.15 ± 0.13 | 2.84 ± 0.11
77 | VVTSSVAESFTDEADSS [SNF2] | 3.03 ± 0.095 | 2.98 ± 0.1 | 3.15 ± 0.075 | 3.01 ± 0.084

From the supplement of paper PMC9732359
